Test results: patent publication US11142752B2, “Pullulanase mutant” (Jiangnan University, priority 2018, dated 2021)
Changes are numbered by the printed parent chain. Names may count otherwise. “And” between values parts separate entries of the source, which are not always exact repeats. Equal entries are not always repeated.

B1: Mutant F476G: Bacillus subtilis str. 168 pullulanase with phenylalanine at position 476 mutated into glycine (protein, UniProt C0SPA0 1-718, looked up, variant F476G)
Pullulanase: MVSIRRSFEAYVDDMNIITVLIPAEQKEIMTPPFRLETEITDFPLAVREEYSLEAKYKYVCVSDHPVTFGKIHCVRASSGHKTDLQIGAVIRTAAFDDEFYYDGELGAVYTADHTVFKVWAPAATSAAVKLSHPNKSGRTFQMTRLEKGVYAVTVTGDLHGYEYLFCICNNSEWMETVDQYAKAVTVNGEKGVVLRPDQMKWTAPLKPFSHPVDAVIYETHLRDFSIHENSGMINKGKYLALTETDTQTANGSSSGLAYVKELGVTHVELLPVNDFAGVDEEKPLDAYNWGYNPLHFFAPEGSYASNPHDPQTRKTELKQMINTLHQHGLRVILDVVFNHVYKRENSPFEKTVPGYFFRHDECGMPSNGTGVGNDIASERRMARKFIADCVVYWLEEYNVDGFRFDLLGILDIDTVLYMKEKATKAKPGILLFGEGWDLATPLPHEQKAALANAPRMPGIGFFNDMFRDAVKGNTGHLKATGFALGNGESAQAVMHGIAGSSGWKALAPIVPEPSQSINYVESHDNHTFWDKMSFALPQENDSRKRSRQRLAAAIILLAQGVPFIHSGQEFFRTKQGVENSYQSSDSINQLDWDRRETFKEDVHYIRRLISLRKAHPAFRLRSAADIQRHLECLTLKEHLIAYRLYDLDEVDEWKDIIVIHHASPDSVEWRLPNDIPYRLLCDPSGFQEDPTEIKKTVAVNGIGTVILYLASDLKSFA
B2: Mutant F476M: Bacillus subtilis str. 168 pullulanase mutated at position 476 (F to M) (protein, UniProt C0SPA0 1-718, looked up, variant F476M)
Pullulanase: B1 Pullulanase with G476M
B3: Mutant F476I: Bacillus subtilis str. 168 pullulanase mutated at position 476 (F to I) (protein, UniProt C0SPA0 1-718, looked up, variant F476I)
Pullulanase: B1 Pullulanase with G476I
B4: Mutant F476A: Bacillus subtilis str. 168 pullulanase mutated at position 476 (F to A) (protein, UniProt C0SPA0 1-718, looked up, variant F476A)
Pullulanase: B1 Pullulanase with G476A
B5: Mutant F476D: Bacillus subtilis str. 168 pullulanase with phenylalanine at position 476 mutated into aspartic acid (protein, UniProt C0SPA0 1-718, looked up, variant F476D)
Pullulanase: B1 Pullulanase with G476D
B6: Mutant F476V: Bacillus subtilis str. 168 pullulanase mutated at position 476 (F to V) (protein, UniProt C0SPA0 1-718, looked up, variant F476V)
Pullulanase: B1 Pullulanase with G476V
B7: Wild enzyme: wild type pullulanase derived from Bacillus subtilis str. 168 (PDB:2E8Z, NCBI CAB14971.2, SEQ ID NO:2) (protein, listed as Bacillus subtilis)
chain: B1 Pullulanase with G476F
B8: Mutant F476C: Bacillus subtilis str. 168 pullulanase mutated at position 476 (F to C) (protein, UniProt C0SPA0 1-718, looked up, variant F476C)
Pullulanase: B1 Pullulanase with G476C
B9: [Brevibacterium] halotolerans Wild enzyme: wild pullulanase of [Brevibacterium] halotolerans (OEC77647.1, SEQ ID NO: 23) (protein)
chain: MVSIQRSFEAYADEMNIITVLIPADQKDTFTPPFQLETDTAEIPLTVSQEWQIEGKCKYVCVAEQPVTFGKTHHVKASGGGKTDLQIGAVVRTDAFDAAFYYDGELGAVYTSDYTEFKVWAPAATSAAVKLSHPEKSGHTLQMTRMENGVYAVTVAGDLHGYEYVYRICNNLEWTETVDPYAKAVTVNGEKGVVLRPDQANSAPSLAPFSDPVDAIIYEMHIRDFSIHENSGMKNKGKYSALAETDTKTKNGSSTGLSYLKELGVTHIELLPLNDYAGVDEENPLAAYNWGYNPLHFFAPEGSYASNPHDPQTRNTEVKQMIHTLQQHGLRVILDVVYNHVYQREHSPFEKTVPGYFFRHDQFGMPSNGTGVGNDIASERRMARKFITDCVMYWLKEYDVDGFRFDLLGILDIETVLHMKEKASEVKPGILLFGEGWDLATPLPPEQKATLANASKMPGVGFFNDSFRDAVKGNTFHIAAAGFALGNGEQTETVMRGIAGSSGWKETAPLVSAPSQSINYVESHDNHTFWDKMSLALPQESESRKRSRQKLASAIILLAQGVPFIHSGQEFFRTKQGVENSYQSSDSINQLDWSRRETFKQDVDYVRRLISLRKAHPAFRLTSSADIQRCLECLALKEHLIVYRLFNLGAIDEWEEIIVIHHASPDSVTWQLPKDKAYRLLCDTDGFRADPGEIKKAVAVNGIGTVILF
modifications: bacterial

Each molecule was assayed on pullulanase derived from Bacillus subtilis str. 168 (assay: Inhibitory effect of cyclodextrin on pullulanase enzyme activity (DNS method, pullulan substrate)). Conditions: Bacillus subtilis str. 168 pullulanase; inhibitor α-CD (0.1 mL of 10 mM cyclodextrin); 1% pullulan pH 6.0, 40° C., 30 min.
Format: biochemical
Excerpt: (§1) 2. Measurement of Enzyme Activity of the Pullulanase:
(§2) A 3,5-dinitrosalicylic acid (DNS) method is adopted. The pullulanase catalyzes the hydrolysis of pullulan to produce reducing sugar under certain conditions, 3,5-dinitrosalicylic acid and the reducing sugar are reduced under thermal conditions to produce a brown-red amino complex, the color depth is directly proportional to the amount of the reducing sugar within a certain range, and the measurement can be performed at the wavelength of 540 nm so as to calculate the enzyme activity. Enzyme activity unit definition: the amount of the enzyme that catalyzes the production of the reducing sugar equivalent to 1 μmol of glucose reducing power per minute is defined as one activity unit.
(§3) 3. Measurement of the Enzyme Activity Comprises the Following Steps:
(§4) A. preheating: putting 1 mL of a 1% pullulan solution of which the pH value is 6.0 and 0.1 mL of a buffer solution of which the pH value is 6.0 in a centrifuge tube, and performing thermal insulation for 10 min on a water bath of 40° C.;
(§5) B. reaction: adding 0.1 mL (10 U) of an enzyme solution, performing shaking and mixing uniformly, performing accurate timing for 30 min, adding 1.5 mL of DNS for stopping reaction, performing treatment in a boiling water bath for 10 min, and performing instant cooling; and
(§6) C. measurement: measuring the light absorption value under the condition of 540 nm, and calculating the activity.
(§7) Reduction of the Inhibitory Effect of Enzyme Activity Characterization:
(§8) A. preheating: putting 1 mL of the 1% pullulan solution of which the pH value is 6.0 and 0.1 mL of 10 mM cyclodextrin in the centrifuge tube, and performing thermal insulation for 10 min on the water bath of 40° C.;
B. reaction: adding 0.1 mL (10 U) of the enzyme solution, performing shaking and mixing uniformly, performing accurate timing for 30 min, adding 1.5 mL of DNS for stopping reaction, performing treatment in the boiling water bath for 10 min, and performing instant cooling; and […]

Molecule	Reduction rate of specific enzyme activity in existence of α-CD
B1	10.6%
B2	6.5%
B3	8.2%
B4	3.5%
B5	5.6%
B6	7.2%
B7	14.3%
B8	4.3%

Same assay, conditions: Bacillus subtilis str. 168 pullulanase; inhibitor α-CD (0.1 mL of 10 mM cyclodextrin); 1% pullulan pH 6.0, 40° C., 30 min; listed as wild type pure enzyme

Molecule	Reduction rate of specific enzyme activity in existence of α-CD
B7	14.3%

Same assay, conditions: Bacillus subtilis str. 168 pullulanase; inhibitor β-CD (0.1 mL of 10 mM cyclodextrin); 1% pullulan pH 6.0, 40° C., 30 min

Molecule	Reduction rate of specific enzyme activity in existence of β-CD
B1	17.1%
B2	20.6%
B3	21.7%
B4	5.6%
B5	11.1%
B6	16.7%
B7	42.8%
B8	17.2%

Same assay, conditions: Bacillus subtilis str. 168 pullulanase; inhibitor β-CD (0.1 mL of 10 mM cyclodextrin); 1% pullulan pH 6.0, 40° C., 30 min; listed as wild type pure enzyme

Molecule	Reduction rate of specific enzyme activity in existence of β-CD
B7	42.8%

Same assay, conditions: Bacillus subtilis str. 168 pullulanase; inhibitor γ-CD (0.1 mL of 10 mM cyclodextrin); 1% pullulan pH 6.0, 40° C., 30 min

Molecule	Reduction rate of specific enzyme activity in existence of γ-CD
B1	17.6%
B2	16.1%
B3	15.2%
B4	5.8%
B5	11.0%
B6	12.3%
B7	17.1%
B8	5.6%

Same assay, conditions: Bacillus subtilis str. 168 pullulanase; inhibitor γ-CD (0.1 mL of 10 mM cyclodextrin); 1% pullulan pH 6.0, 40° C., 30 min; listed as wild type pure enzyme

Molecule	Reduction rate of specific enzyme activity in existence of γ-CD
B7	7.1% and 17.1%

Same assay, conditions: α-CD, β-CD and γ-CD; comparison of mutant with wild type pure enzyme

Molecule	Inhibitory effects of three cyclodextrins on the pullulanase mutant compared with the wild type pullulanase
B1	significantly lower than that of the wild type pullulanase
B5	significantly lower than that of the wild type pullulanase

These molecules were tested on pullulanase of [Brevibacterium] halotolerans in the same assay as above. Conditions: inhibitor α-CD.
Format: biochemical
Excerpt: as §1, §2, §3, §4, §5, §6, §7, §8
B. reaction: adding 0.1 mL (10 U) of the enzyme solution, performing shaking and mixing uniformly, performing accurate timing for 30 min, adding 1.5 mL of DNS for stopping reaction, performing treatment in the boiling water bath for 10 min, and performing instant cooling; and
On the basis, the phenylalanine at the position 481 of the Geobacillus stearothermophilus, the phenylalanine at the position 478 of the [Brevibacterium] halotolerans and the phenylalanine at the position 476 of the […] are mutated, obtained mutants and the mutation effects are shown in the table below. The key amino acid site is applicable to the pullulanase from different sources.

Molecule	Reduction rate of specific enzyme activity in existence of α-CD
B9	15.3%

Same assay, conditions: inhibitor β-CD

Molecule	Reduction rate of specific enzyme activity in existence of β-CD
B9	47.2%

Same assay, conditions: inhibitor γ-CD

Molecule	Reduction rate of specific enzyme activity in existence of γ-CD
B9	6.1%
